Here are results for one molecule from article PMC13233068, “HSD17B7 is required for the function of sensory hair cells by regulating cholesterol synthesis” (eLife, 2026).

The assay concerns the target T1, GST-HSD17B7 fusion protein (human, UniProt P56937-1 1-341).
T1 construct: HSD17B7 (17β-hydroxysteroid dehydrogenase type 7), human, full-length cDNA amplified from HEK293T cDNA; 341 aa by the domain limits printed (1-229, 230-250, 251-341); also called 17β-Hydroxysteroid dehydrogenase type 7
T1 sequence (looked up): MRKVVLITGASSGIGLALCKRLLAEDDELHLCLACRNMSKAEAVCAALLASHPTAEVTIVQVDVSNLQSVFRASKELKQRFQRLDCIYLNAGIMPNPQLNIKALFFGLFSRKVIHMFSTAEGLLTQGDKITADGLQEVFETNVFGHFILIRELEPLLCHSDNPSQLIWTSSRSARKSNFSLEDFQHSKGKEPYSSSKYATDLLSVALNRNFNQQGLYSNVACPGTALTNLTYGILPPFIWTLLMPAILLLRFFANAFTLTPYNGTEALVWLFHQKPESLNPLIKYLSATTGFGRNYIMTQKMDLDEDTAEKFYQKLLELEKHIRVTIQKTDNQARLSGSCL
The assay is described as follows: pull-down; GST and GST-HSD17B7 immobilised on GSH resin, incubated with purified His-RER1 overnight at 4°C, washed with 0.3% PBST; Coomassie staining and western blot. The note with it: both partners purified.

B1: RER1-His (natural protein, human (cDNA from HEK293T), UniProt O15258 1-196, looked up)
chain: MSEGDSVGESVHGKPSVVYRFFTRLGQIYQSWLDKSTPYTAVRWVVTLGLSFVYMIRVYLLQGWYIVTYALGIYHLNLFIAFLSPKVDPSLMEDSDDGPSLPTKQNEEFRPFIRRLPEFKFWHAATKGILVAMVCTFFDAFNVPVFWPILVMYFIMLFCITMKRQIKHMIKYRYIPFTHGKRRYRGKEDAGKAFAS
notes: RER1, full-length cDNA amplified from HEK293T cDNA; The legend prints RER1-His, the methods His-RER1; the pET-23b vector would add a C-terminal His tag (surmised); Detected by immunoblot of the His tag; also called His-RER1; ER retention receptor RER1
Regarding B1, the binding result is listed as “binds”.
